Consider 13 molecules from US20200199244A1 (published 2020).

Values joined by “and” are separate entries in the source; they are usually repeats but may differ in a detail not shown here. Identical values can stand only once.

Experiment [1] has as its target T1, biotinylated human CD40 (human, UniProt P25942 21-193, limits assumed, biotinylated (sites not given)).
T1 construct: Biotinylated human CD40 (supplied by BMS), about 600 RU immobilised on a streptavidin BIAcore chip; also called hCD40
In words: SPR, BIAcore 3000, 10 µM dAb alone over biotinylated human CD40.

Experiment [2] has as its target T1, biotinylated human CD40. In words: SPR, BIAcore 3000, 5 µM dAb alone over biotinylated human CD40.
Procedure: (§1) A BIAcore™ 3000 instrument (GE Healthcare) was used to analyze whether CD40-specific dAbs bound the same CD40 epitope. […] A second flow-cell without any ligand immobilized served as a reference flow-cell for inline referencing. An appropriate dilution of each dAb or Fab to be analyzed was prepared in HBS-EP buffer (0.01 M HEPES pH 7.4 with 0.15 M NaCl, 3 mM EDTA and 0.005% v/v Surfactant P20, GE Healthcare). […] Next, a mixture of the same dAb or Fab as above (at the same final concentration) was prepared with a second dAb or Fab to be analyzed for competition. The COINJECT function of the instrument was used to inject 60 μl of the single-inhibitor dilution across the CD40-immobilized and reference flow-cells in series, followed immediately by a 60 μl injection of the two-inhibitor mixture. Inline subtraction of the signal from the reference cell was performed by the instrument's control software. The experiment was performed at 25° C. and a flow rate of 30 μl/min of HBS-EP. […] The maximum RU obtained for the second injection (the mixture of the two inhibitors) was noted and expressed as a percentage of the RU obtained for the same inhibitor when injected alone.
Experiment [3] has as its target T2, cynomolgus monkey CD40 on CD20+ B cells in blood (Macaca fascicularis (cynomolgus monkey), UniProt P25942 21-277 (human entry)).
T2 construct: also called cynoCD40
T2 chain: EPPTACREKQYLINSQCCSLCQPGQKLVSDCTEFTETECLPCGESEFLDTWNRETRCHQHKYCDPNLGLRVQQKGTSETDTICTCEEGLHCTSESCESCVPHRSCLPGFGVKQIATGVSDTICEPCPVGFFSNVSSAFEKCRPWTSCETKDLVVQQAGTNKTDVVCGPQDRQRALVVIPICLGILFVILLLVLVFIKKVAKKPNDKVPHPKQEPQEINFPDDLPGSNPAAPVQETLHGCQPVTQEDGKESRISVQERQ
The experiment is described as follows: flow cytometry on whole blood, anti-PEG detection, gate on CD20+ B cells.
Procedure: (§2) 100 μl from each blood sample was aliquoted to 12×75 mm tubes and washed 3 times with FACS buffer (0.5% FBS/PBS/0.1% sodium azide). Tubes were centrifuged for 5 minutes at 1500 rpm, and supernatants were decanted between washes. Following the washes, tubes were placed on ice and incubated with human IgG for 5 minutes to block non-specific binding via Fc receptors.
(§3) Samples were washed once in FACS buffer, then incubated with an APC-labeled CD20 antibody (clone 2H7, BD Biosciences) and PE labeled-anti-mouse IgG (Fcγ1 specific; Calbiochem) for an additional 30 minutes on ice.
(§4) To lyse red blood cells and fix white blood cells following detection antibody incubation, FACS Lysing Solution (BD Biosciences) was added to all tubes, and samples were incubated for 15 minutes at room temperature. Samples were centrifuged and resuspended in FACS Lysing Solution, and analyzed by flow cytometry on a BD FACSCanto™, gating on CD20+ B cells for analysis. For marmoset samples, the CD20 antibody was not cross reactive; therefore analysis was performed on all lymphocytes as identified by forward and side scatter properties (size).

In experiment [4] the target is T3, rhesus macaque CD40 on CD20+ B cells in blood (rhesus macaque, UniProt F6SNI1 21-278).
T3 construct: whole, on cells; also called rhesus CD40
The experiment is described as above.
Procedure: as §2, §3, §4

The target of experiment [5] is T4, marmoset CD40 on blood lymphocytes (marmoset, UniProt Q3LRP1 21-274).
T4 construct: whole, on cells
In words: flow cytometry on whole blood, anti-PEG detection, all lymphocytes by scatter.
Procedure: as §2, §3, §4

Experiment [6] deals with T1, biotinylated human CD40. In words: SPR, BIAcore 3000, dAb injected alone over biotinylated human CD40 on SA chip.
Procedure: as §1
For experiment [7], the target named is T1, biotinylated human CD40. In words: SPR, BIAcore 3000 COINJECT over biotinylated human CD40; mixture after first injection; competitor BMS3h-56-5.
Procedure: as §1
The target in experiment [8] is T5, human CD40 (W109L) Fc fusion (human, UniProt P25942 21-193).
T5 construct: As m1 with W109L; also called hCD40-M2; not shown: human IgG1 Fc
The experiment is described as follows: SPR ProteOn XPR36.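 Note: surface plasmon resonance with CD40-Fc fusions captured through their Fc on an anti-human IgG chip, sensorgrams reference-subtracted against surfaces lacking CD40-Fc.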

Experiment [9] concerns the target T6, human CD40 (W109R) Fc fusion (Chimpanzee CD40) (human, UniProt P25942 21-193).
T6 construct: As m1 with W109R (residue of chimpanzee CD40); also called hCD40-M3; not shown: human IgG1 Fc
In words: SPR ProteOn XPR36.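 Note: surface plasmon resonance with CD40-Fc fusions captured through their Fc on an anti-human IgG chip, sensorgrams reference-subtracted against surfaces lacking CD40-Fc.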

Experiment [10] concerns the target T7, human CD40 (W109L, L121P) Fc fusion (human, UniProt P25942 21-193).
T7 construct: As m1 with W109L and L121P; also called hCD40-M4; not shown: human IgG1 Fc
In words: SPR ProteOn XPR36.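 Note: surface plasmon resonance with CD40-Fc fusions captured through their Fc on an anti-human IgG chip, sensorgrams reference-subtracted against surfaces lacking CD40-Fc.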

Experiment [11] deals with T8, human CD40 (H76R, W109L, L121P) Fc fusion (human).
T8 construct: As m1 with H76R, W109L and L121P; also called hCD40-M5; not shown: human IgG1 Fc
T8 chain: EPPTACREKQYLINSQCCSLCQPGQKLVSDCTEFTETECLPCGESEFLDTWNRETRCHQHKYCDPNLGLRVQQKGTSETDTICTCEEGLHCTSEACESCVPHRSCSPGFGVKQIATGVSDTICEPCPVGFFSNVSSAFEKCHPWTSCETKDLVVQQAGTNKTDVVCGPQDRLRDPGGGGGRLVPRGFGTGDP
The experiment is described as follows: SPR ProteOn XPR36.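 Note: surface plasmon resonance with CD40-Fc fusions captured through their Fc on an anti-human IgG chip, sensorgrams reference-subtracted against surfaces lacking CD40-Fc.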

For experiment [12], the target named is T9, wild type cynomolgus monkey CD40 Fc fusion (cynomolgus monkey; human).
T9 construct: also called wt-cyno-CD40; wt-cCD40; not shown: human IgG1 Fc
T9 chain: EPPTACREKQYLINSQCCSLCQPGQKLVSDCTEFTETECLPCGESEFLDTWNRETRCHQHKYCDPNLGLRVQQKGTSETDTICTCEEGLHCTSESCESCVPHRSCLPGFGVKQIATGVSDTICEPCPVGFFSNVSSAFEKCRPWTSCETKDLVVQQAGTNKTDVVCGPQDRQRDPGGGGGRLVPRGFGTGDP
In words: SPR ProteOn XPR36.

Experiment [13] addresses T10, wild type human CD40 Fc fusion (human, UniProt P25942 21-193).
T10 construct: also called wt-hCD40; not shown: human IgG1 Fc
The experiment is described as follows: SPR ProteOn XPR36, CD40-Fc captured, dAb analyte.

Experiment [14] addresses T11, human CD40 (H76R) Fc fusion (human, UniProt P25942 21-193).
T11 construct: As m1 with H76R; also called hCD40-M1; not shown: human IgG1 Fc
The experiment is described as follows: SPR ProteOn XPR36, CD40-Fc captured, dAb analyte.

The target in experiment [15] is T5, human CD40 (W109L) Fc fusion. The experiment is described as follows: SPR ProteOn XPR36, CD40-Fc captured, dAb analyte.
Procedure: (§5) Assays were performed on a BioRad ProteOn XPR36 SPR instrument. The SPR surfaces were prepared by immobilizing 8 μg/ml anti-human IgG(Fc) antibody (Biacore/GE Healthcare) in 10 mM sodium acetate pH 4.5 on a BioRad GLC sensor chip using standard ethyl(dimethylaminopropyl) carbodiimide (EDC)/N-hydroxysuccinimide (NHS) chemistry, with ethanolamine blocking. The running buffer for immobilization and kinetic binding analysis was 10 mM sodium phosphate, 130 mM sodium chloride, 0.05% tween 20, pH 7.1. CD40-Fc fusion proteins at concentrations of 20 μg/ml were captured in the vertical orientation on these surfaces via the Fc tail, and reference surfaces lacking CD40-Fc proteins were used for reference subtraction. […] The surfaces were regenerated in both horizontal and vertical orientations with 30 s pulses of 3 M MgCl₂ followed by running buffer at 60 μl/min. Sensogram data was double-referenced and then fitted to a 1:1 Langmuir model using BioRad ProteOn Manager V.2.1.0.38 software, to determine the association rate constant (ka), the dissociation rate constant (kd), and the equilibrium dissociation constant (KD).
Experiment [16] addresses T6, human CD40 (W109R) Fc fusion …. In words: SPR ProteOn XPR36, CD40-Fc captured, dAb analyte.
Procedure: as §5
Experiment [17] addresses T7, human CD40 (W109L, L121P) Fc fusion. In words: SPR ProteOn XPR36, CD40-Fc captured, dAb analyte.
Procedure: as §5
Experiment [18] has as its target T8, human CD40 (H76R, W109L, L121P) Fc …. In words: SPR ProteOn XPR36, CD40-Fc captured, dAb analyte.
Procedure: as §5
Experiment [19] concerns the target T9, wild type cynomolgus monkey CD40 Fc …. The experiment is described as follows: SPR ProteOn XPR36, CD40-Fc captured, dAb analyte.
Procedure: as §5

B1: BMS3h-107 (other)
VH: EVQLLESGGGLVQPGGSLRLSCAASGFTFSGYDMQWVRQAPGKGLEWVSTISASGVFTYYADSVKGRFTTSRDNSKNTLYLQMNSLRAEDTAVYYCAKYPNRFALNNFDYWGQGTLVTVSS
notes: Domain antibody (dAb), single human VH domain
With B1, in the experiment with biotinylated human CD40 [1], the “Single dAb RU” value amounted to 35 RU.

B2: BMS3h-106 (other)
VH: EVQLLESGGGLVQPGGSLRLSCAASGFTFSTYHMQWVRQAPGKGLEWVSMIDADGLGTYYADSVKGRFTISRDNSKNTLYLQMNSLRAEDTAVYYCAKPGPQFGQFDYWGQGTLVTVSS
notes: as for B1
B2: the “Single dAb RU” value with biotinylated human CD40 [1] was determined as 165 RU.

B3: BMS3h-41-13 (other)
VH: EVQLLESAGGLVQPGGSLRLSCAASGFTFAEYEMIWVRQAPGKGLEWVSSISGNGANTYYADSVKGRFTISRDNSKNTLYLQMNSLRAEDTAVYYCAKEPLRFDYWGQGALVTVSS
notes: as for B1
As for B3, in the experiment with biotinylated human CD40 [2], the “Single dAb RU” value came out at 162 RU.

B4: BMS3h-56-5C-40L (other)
VH: EVQLLESGGGLVQPGGSLRLSCAASGFTFRDYEMWWVRQAPGKGLERVSAINPQGTRTYYADSVMGRFTISRDNSKNTLYLQMNSLRAEDTAVYYCAKLPFTFDDWGQGTLVTVSS
modifications: PEGylated; attachment residue not stated
notes: PEGylated form of dAb BMS3h-56-5; also called PEGylated anti-human CD40 dAb
In the case of B4, the binding result in experiment [3], in experiment [4] and in experiment [5] was “no binding” in each case.

B5: BMS3h-43-1 (other)
VH: EVQLLESGGGLVQPGGSLRLSCTASGFTFNMYEMSWVRQAPGKGLEWVSGISRRGFTTYYADSVKGRFTISRDNSKNTLYLQMNSLRAEDTAVYYCAKEPITYDLRYARFDYSGQGTLVTVSS
notes: as for B1
B5: the “RU first dAb alone” value with biotinylated human CD40 [6] turned out to be 210 RU. Moreover, in the experiment with biotinylated human CD40 [7], the “Second Injection (% of single dAb RU)” value turned out to be 22%.

B6: BMS3h-43-3 (other)
VH: EVQLLESGGGLVQPGGSLRLSCTASGFTFNMYEMSWVRQAPGKGLEWVSGISRRGFTTYYADSVKGRFTISRDNFKNTLYLQMNSLRAEDTAVYYCAKEPITYDMRYARFDYGGQGTLVTVSS
notes: as for B1
On to B6, for which, in the experiment with biotinylated human CD40 [2], the “Single dAb RU” value turned out to be 300 RU.

B7: BMS3h-38-2 (other)
VH: EVQLLASGGGLVQPGGSLRLSCAASGFTFEEEEMIWVRQAPGKGLEWVSAISGSGGSTYYADSVKGRFTISRDNSKNTLYLQMNSLRAEDTAVYYCGKEPFRYDYWGQGTLVTVSS
notes: domain antibody (dAb), single VH domain
As for B7, the binding result in experiment [8], in experiment [9], in experiment [10], in experiment [11] and in experiment [12] was “no binding (tested: 405 nM)” in each case. For the same molecule, the Kd in experiment [13] was 5.1 nM and 8 nM; in [14], 7.2 nM.

B8: BMS3h38-2C-P40Br (other)
VH: EVQLLASGGGLVQPGGSLRLSCAASGFTFEEEEMIWVRQAPGKGLEWVSAISGSGGSTYYADSVKGRFTISRDNSKNTLYLQMNSLRAEDTAVYYCGKEPFRYDYWGQGTLVTVSS
modifications: PEGylated; attachment residue not stated
notes: PEGylated form of dAb BMS3h-38-2; also called PEGylated anti-human CD40 dAb
For the molecule B8, the binding result in [3], in experiment [4] and in experiment [5] was “no binding” in each case.

B9: BMS3h-217 (other)
VL: DIQMTQSPSSLSASVGDRVTITCRASHFIGTLLSWYQQKPGKAPKLLITYGSLLQSGVPSRFSGSGSGTDFTLTISSLQPEDFATYYCGQGVLWPATFGQGTKVEIKR
notes: Domain antibody (dAb), single human V kappa domain
Regarding B9, the “Single dAb RU” value in the experiment with biotinylated human CD40 [1] was 85 RU.

B10: BMS3h-217-16 (other)
VL: DIQMTQSPSSLSASVGDRVTITCRASHFIGTLLSWYQQKPRKAPKLLITYGSLLQSGVPSRFSGSGSGTDFTLTISSLQPEDFATYYCGQGVLWPPTFGQGTKVEIKR
notes: domain antibody (dAb), single VK domain
Consider B10, for which the Kd in experiment [13] is 0.22 nM and 0.26 nM; in experiment [14], 0.35 nM; in [15], 0.41 nM; in experiment [16] it was 0.27 nM; in [17] it was 0.35 nM; in [18] it was 0.5 nM. Moreover, the Kd in experiment [19] was 0.4 nM.

B11: BMS3h-217-5 (other)
VL: DIQMTQSPSFLSASVGDRVTITCRASHFIATLLSWYQQKPGKAPKLLITYGSLLQSGVPSRFSGSGSGTDFTLTISSLQPEDFATYYCGQGVLWPPTFGQGTKVEIKR
notes: as for B10
Turning to B11, the Kd was 0.47 nM and 0.48 nM in experiment [13]; 0.94 nM in experiment [14]; 0.99 nM in experiment [15]; 0.72 nM in experiment [16]; 0.93 nM in experiment [17]; 1 nM in experiment [18]. Also, the Kd in experiment [19] amounted to 0.9 nM.

B12: BMS3h-217-23 (other)
VL: DIQMTQSPSSLSASVGDRVTITCRASHFIGSLLSWYQVKPGKAPKLLITYGSLLQSGVPSRFSGSGSGTDFTLTISSLQPEDFATYYCGQGVLWPATFGQGTTVEIKR
notes: as for B10
As to B12, the dissociation constant (Kd) is 0.78 nM and 1.5 nM in experiment [13]; 1.6 nM in experiment [14]; 2 nM in [15]; 1.2 nM in experiment [16]; 1.6 nM in [17]; 2.2 nM in experiment [18]. Moreover, binding in experiment [19] was characterised by a dissociation constant (Kd) of 1.9 nM.

B13: BMS3h-193-12 (other)
VL: DIQMTQSPSSLSASVGDRVTITCRASQTIERRLNWYQQKPGKAPKLLIYLASRLQSGVPSRFSGSGSGTDFTLTISSLQPEDFATYYCHQYESPPLTFGQGTKVEIKR
notes: as for B9
Turning to B13, the “Single dAb RU” value with biotinylated human CD40 [2] amounted to 282 RU.
